Experimental data published in US20140256626A1, “PEG CONJUGATES OF EXENATIDE” (priority 2011, published 2014).

Biological target: human GLP-1 receptor (human) (UniProt P43220)
Test: cell-based or functional assay

Chain of human GLP-1 receptor (human) (P43220 24-463 limits assumed): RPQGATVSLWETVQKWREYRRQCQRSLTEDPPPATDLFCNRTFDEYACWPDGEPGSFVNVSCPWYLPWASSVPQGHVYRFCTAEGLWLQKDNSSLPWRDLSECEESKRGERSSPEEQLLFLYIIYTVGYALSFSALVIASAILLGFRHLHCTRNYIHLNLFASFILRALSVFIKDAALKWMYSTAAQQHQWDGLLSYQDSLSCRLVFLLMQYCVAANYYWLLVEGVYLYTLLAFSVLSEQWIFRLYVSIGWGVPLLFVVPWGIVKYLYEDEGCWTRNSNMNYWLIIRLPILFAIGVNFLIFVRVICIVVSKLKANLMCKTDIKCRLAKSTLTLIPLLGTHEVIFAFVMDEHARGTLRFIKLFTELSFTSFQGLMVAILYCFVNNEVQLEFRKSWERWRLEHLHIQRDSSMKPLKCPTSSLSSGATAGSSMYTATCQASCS

## Exenatide (exendin-4) (peptide)
  EC50 (DiscoveRx GLP1R cAMP Hunter assay): 0.066 nM

## Stably-linked N-[6-azidohexyloxy]-exenatide conjugate of Example 5 (non-releasable control conjugate, R1 = absent, conjugated to DBCO-Lys(DEAC)-[GL4-400] 40 kDa four-branched PEG) (peptide)
  EC50 (DiscoveRx GLP1R cAMP Hunter assay): > 100 nM
  fold decrease of biological activity against free exenatide: > 10000 fold
